From PMC7729979, “A protein of the metallo-hydrolase/oxidoreductase superfamily with both beta-lactamase and ribonuclease activity is linked with translation in giant viruses” (Scientific Reports, 2020) come the findings set out here.

Usually Km stands for the substrate concentration at which the rate is half of its maximum.

The subject of data set [1] is O=C(Cc1cccs1)N[C@@H]1C(=O)N2C(C(=O)O)=C(/C=C/c3ccc([N+](=O)[O-])cc3[N+](=O)[O-])CS[C@H]12. As to the kind of experiment: purified protein. Conditions: PBS pH 7.4, promiscuous beta-lactamase activity.
The target in data set [2] is TupBlac (Tupanvirus deep ocean MBL fold protein AUL78925.1) (Tupanvirus deep ocean, UniProt A0AC62AAK8). As to the kind of experiment: LC-MS of penicillin G hydrolysis and benzylpenilloic acid formation. In kind it is biochemical. As to conditions: sulbactam 10 µg/mL, penicillin G 10 µg/mL, room temperature, up to 48 h; inhibition qualitative, mechanism not determined.

For the molecule “TupBlac (Tupanvirus deep ocean MBL fold protein AUL78925.1) (Tupanvirus deep ocean)”, in data set [1], the Km worked out at 160 ± 5 µM and the kcat was 8.8 × 10^–4 ± 8.5 × 10^–5 s^−1. As to `CC1(C)[C@H](C(=O)O)N2C(=O)C[C@H]2S1(=O)=O` [sulbactam], the “LC-MS of penicillin G hydrolysis and benzylpenilloic acid formation” value in data set [2] was “both penicillin G degradation and benzylpenilloic acid appearance were inhibited by sulbactam”.
